Source: the Immune Epitope Database (IEDB)

Experiments:
[1] = target: HLA-A*02:12; experiment: IEDB peptide-MHC binding, purified MHC/direct/fluorescence; filed as Kd, often an IC50 or EC50 that approximates it; ≥ and ≤ were set here for values at or beyond the usual limits of such assays
[2] = target: HLA-A*02:19; experiment: as above
[3] = target: HLA-A*03:01; experiment: as above
[4] = target: HLA-A*02:03; experiment: as above
[5] = target: HLA-C*03:03; experiment: as above; settings: source organism: Campylobacter jejuni subsp. jejuni 81-176
[6] = target: HLA-B*39:01; experiment: as above
[7] = target: HLA-B*27:03; experiment: as above
[8] = target: HLA-A*02:01; experiment: as above
[9] = target: HLA-C*15:02; experiment: as above; settings: source organism: Campylobacter jejuni subsp. jejuni 81-176
[10] = target: HLA-B*51:01; experiment: as above
[11] = target: HLA-A*02:16; experiment: as above
[12] = target: HLA-B*51:01; experiment: IEDB peptide-MHC binding, purified MHC/competitive/fluorescence; filed as Kd, often an IC50 or EC50 that approximates it; ≥ and ≤ were set here for values at or beyond the usual limits of such assays; settings: source organism: Vaccinia virus WR
[13] = target: HLA-C*12:03; experiment: IEDB peptide-MHC binding, purified MHC/direct/fluorescence; filed as Kd, often an IC50 or EC50 that approximates it; ≥ and ≤ were set here for values at or beyond the usual limits of such assays; settings: source organism: Vaccinia virus WR
[14] = target: HLA-C*08:02; experiment: as above; settings: source organism: Vaccinia virus WR
[15] = target: HLA-A*69:01; experiment: as above
[16] = target: HLA-A*24:02; experiment: IEDB peptide-MHC binding, purified MHC/competitive/fluorescence; filed as Kd, often an IC50 or EC50 that approximates it; ≥ and ≤ were set here for values at or beyond the usual limits of such assays; settings: source organism: Cryptosporidium parvum Iowa II
[17] = target: HLA-C*07:02; experiment: IEDB peptide-MHC binding, purified MHC/direct/fluorescence; filed as Kd, often an IC50 or EC50 that approximates it; ≥ and ≤ were set here for values at or beyond the usual limits of such assays; settings: source organism: Cryptosporidium parvum Iowa II
[18] = target: HLA-B*46:01; experiment: as above; settings: source organism: Toxoplasma gondii
[19] = target: HLA-B*15:17; experiment: as above; settings: source organism: Toxoplasma gondii
[20] = target: HLA-A*29:02; experiment: as above; settings: source organism: Toxoplasma gondii
[21] = target: HLA-A*23:01; experiment: as above; settings: source organism: Toxoplasma gondii
[22] = target: HLA-B*15:01; experiment: as above; settings: source organism: Toxoplasma gondii
[23] = target: HLA-B*57:01; experiment: as above; settings: source organism: Toxoplasma gondii
[24] = target: HLA-A*24:03; experiment: as above; settings: source organism: Toxoplasma gondii
[25] = target: HLA-A*02:11; experiment: as above; settings: source organism: Toxoplasma gondii
[26] = target: HLA-B*18:01; experiment: as above; settings: source organism: Toxoplasma gondii
[27] = target: HLA-A*26:01; experiment: as above; settings: source organism: Toxoplasma gondii
[28] = target: HLA-A*68:02; experiment: as above; settings: source organism: Toxoplasma gondii
[29] = source organism: Campylobacter jejuni subsp. jejuni 81116
[30] = source organism: Camelpox virus M-96
[31] = source organism: Toxoplasma gondii

YTNYPFLFF
Kd [1, 29]: ≥ 20 µM
Kd [2, 29]: ≥ 20 µM
Kd [3, 29]: ≥ 20 µM
Kd [4, 29]: ≥ 20 µM
Kd [5]: 0.159 µM
Kd [6, 29]: ≥ 20 µM
Kd [7, 29]: ≥ 20 µM
Kd [8, 29]: ≥ 20 µM
Kd [9]: 0.025 µM
Kd [10, 29]: ≥ 20 µM
Kd [11, 29]: ≥ 20 µM

YLYETYHLI
Kd [12]: 4 µM
Kd [13]: 0.155 µM
Kd [14]: ≥ 20 µM
Kd [8, 30]: 0.002 µM
Kd [15, 30]: 0.0038 µM

NYKWWWFSF
Kd [16]: 0.0023 µM
Kd [17]: 0.181 µM

LPPVVPPLI
Kd [18]: ≥ 20 µM
Kd [19]: ≥ 20 µM
Kd [1, 31]: ≥ 20 µM
Kd [20]: ≥ 20 µM
Kd [21]: ≥ 20 µM
Kd [2, 31]: ≥ 20 µM
Kd [3, 31]: ≥ 20 µM
Kd [22]: ≥ 20 µM
Kd [4, 31]: ≥ 20 µM
Kd [23]: ≥ 20 µM
Kd [24]: ≥ 20 µM
Kd [6, 31]: ≥ 20 µM
Kd [25]: ≥ 20 µM
Kd [7, 31]: ≥ 20 µM
Kd [26]: ≥ 20 µM
Kd [8, 31]: ≥ 20 µM
Kd [15, 31]: ≥ 20 µM
Kd [10, 31]: 0.201 µM
Kd [27]: ≥ 20 µM
Kd [28]: ≥ 20 µM
Kd [11, 31]: ≥ 20 µM
